In patent US20180155451A1 (published 2018):

T1: FcγRIIa H (human, UniProt P12318 34-217)
T1 construct: extracellular domain; also called FcγRIIa type H; 2aH
T1 sequence (looked up): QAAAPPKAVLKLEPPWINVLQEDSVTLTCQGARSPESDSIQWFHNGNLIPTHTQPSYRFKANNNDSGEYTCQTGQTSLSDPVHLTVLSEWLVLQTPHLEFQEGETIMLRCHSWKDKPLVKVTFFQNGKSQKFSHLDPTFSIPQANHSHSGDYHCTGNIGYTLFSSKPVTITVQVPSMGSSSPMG

T2: FcγRIIb (human, UniProt P31994 43-217)
T2 construct: extracellular domain; also called 2b
T2 sequence (looked up): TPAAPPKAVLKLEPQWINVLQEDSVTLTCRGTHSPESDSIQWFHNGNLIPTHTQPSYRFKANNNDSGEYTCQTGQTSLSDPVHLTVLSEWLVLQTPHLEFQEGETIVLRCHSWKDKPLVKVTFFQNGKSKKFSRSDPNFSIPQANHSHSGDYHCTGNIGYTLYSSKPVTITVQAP

T3: FcγRIIb extracellular domain with C-terminal His tag (human, UniProt P31994 43-217)
T3 construct: extracellular domain; also called 2b; FcgRIIb
T3 sequence (looked up): T2 sequence (looked up)

B1: GpH7-A5/GpH7-B3 variant H268_19Q/GpL16-k0 (antibody, human IgG1, kappa)
heavy 1: not shown
heavy 2: not shown
light: DIVMTQSPLSLPVTPGEPASISCQASESLVHSNRNTYLHWYLQKPGQSPQLLIYKVSNRFSGVPDRFSGSGSGTDFTLKISRVEAEDVGVYYCSQNTHVPPTFGQGTKVEIERTVAAPSVFIFPPSDEQLKSGTASVVCLLNNFYPREAKVQWKVDNALQSGNSQESVTEQDSKDSTYSLSSTLTLSKADYEKHKVYACEVTHQGLSSPVTKSFNRGEC
notes: heterodimerized IgG1, mutation in one H chain only; also called He Ab
B2: GpH7-A5/GpH7-B3 variant K326_02A/GpL16-k0 (antibody, human IgG1, kappa)
heavy 1: not shown
heavy 2: not shown
light: B1 light
notes: as for B1
B3: GpH7-A5/GpH7-B3 variant H268_18N/GpL16-k0 (antibody, human IgG1, kappa)
heavy 1: not shown
heavy 2: not shown
light: B1 light
notes: as for B1
B4: GpH7-A5/GpH7-B3 variant P271_14T/GpL16-k0 (antibody, human IgG1, kappa)
heavy 1: not shown
heavy 2: not shown
light: B1 light
notes: as for B1
B5: GpH7-A5/GpH7-B3 variant S267_06M/GpL16-k0 (antibody, human IgG1, kappa)
heavy 1: not shown
heavy 2: not shown
light: B1 light
notes: as for B1
B6: GpH7-A5/GpH7-B3 variant P271_10E/GpL16-k0 (antibody, human IgG1, kappa)
heavy 1: not shown
heavy 2: not shown
light: B1 light
notes: as for B1
B7: GpH7-A5/GpH7-B3 variant H268_13S/GpL16-k0 (antibody, human IgG1, kappa)
heavy 1: not shown
heavy 2: not shown
light: B1 light
notes: as for B1
B8: GpH7-A5/GpH7-B3 variant P271_01G/GpL16-k0 (antibody, human IgG1, kappa)
heavy 1: not shown
heavy 2: not shown
light: B1 light
notes: as for B1
B9: GpH7-A5/GpH7-B3 variant L234_16H/GpL16-k0 (antibody, human IgG1, kappa)
heavy 1: not shown
heavy 2: not shown
light: B1 light
notes: He Ab: alteration in one H chain only; also called He Ab
B10: GpH7-A5/GpH7-B3 variant L235_18N/GpL16-k0 (antibody, human IgG1, kappa)
heavy 1: not shown
heavy 2: not shown
light: B1 light
notes: as for B9
B11: GpH7-A5/GpH7-B3 variant L235_11K/GpL16-k0 (antibody, human IgG1, kappa)
heavy 1: not shown
heavy 2: not shown
light: B1 light
notes: as for B9
B12: GpH7-A5/GpH7-B3 variant L235_01G/GpL16-k0 (antibody, human IgG1, kappa)
heavy 1: not shown
heavy 2: not shown
light: B1 light
notes: as for B9
B13: GpH7-A5/GpH7-B3 variant L235_19Q/GpL16-k0 (antibody, human IgG1, kappa)
heavy 1: not shown
heavy 2: not shown
light: B1 light
notes: as for B9
B14: GpH7-A5/GpH7-B3 variant L235_03V/GpL16-k0 (antibody, human IgG1, kappa)
heavy 1: not shown
heavy 2: not shown
light: B1 light
notes: as for B9
B15: GpH7-A5/GpH7-B3 variant L234_19Q/GpL16-k0 (antibody, human IgG1, kappa)
heavy 1: not shown
heavy 2: not shown
light: B1 light
notes: as for B9
B16: GpH7-A5/GpH7-B3 variant L235_13S/GpL16-k0 (antibody, human IgG1, kappa)
heavy 1: not shown
heavy 2: not shown
light: B1 light
notes: as for B9
B17: GpH7-A5/GpH7-B3 variant L235_14T/GpL16-k0 (antibody, human IgG1, kappa)
heavy 1: not shown
heavy 2: not shown
light: B1 light
notes: as for B9
B18: GpH7-A5/GpH7-B3 variant L235_05P/GpL16-k0 (antibody, human IgG1, kappa)
heavy 1: not shown
heavy 2: not shown
light: B1 light
notes: as for B9

Target: T1, FcγRIIa H
Assay: SPR; He/Con_2aH divided by He/Con_2b (FcγRIIb)
Description: The heterodimerized antibodies He Abs in which one of the H chains was introduced with an alteration were assayed for their binding activities to each activating FcγR and inhibitory FcγR according to the method described in Example 4. […] The activating FcγRs in FIGS. 26, 27, 28, and 29 are FcγRIa, FcγRIIa (R), FcγRIIa (H), and FcγRIIIa, respectively.
Analysis of interaction between objective antibody and the FcγR was carried out using Biacore T100 (GE Healthcare). HBS-EP+ (GE Healthcare) was used as the running buffer, and the measurement temperature was set to 25° C. Chips produced by immobilizing the antigen peptide by the amine coupling method to a Series S Sencor Chip CM5 (GE Healthcare), or alternatively, chips produced by allowing preliminarily biotinylated antigen peptides to interact with and immobilize onto a Series S Sensor Chip SA (certified) (GE Healthcare) were used. Antibodies of interest were captured onto an antigen peptide-immobilized chip, and allowed to interact to each FcγR diluted with running buffer. To regenerate and repeatedly use the chip, the antibodies captured on the chip were washed off by reacting 10 mM glycine-HCl, pH 1.5.

He_2aH/2b (IIaH/IIb) [ratio]	Binder
0.77	B1
0.76	B2
0.72	B3
0.64	B4
0.16	B5
0.58	B6
0.7	B7
0.55	B8

Target: T2, FcγRIIb
Assay: SPR (Biacore), relative binding vs GpH7-A5/GpH7-B3/GpL16-k0

He/Con_2b	Binder
133 % of control He Ab (=100)	B1
139 % of control He Ab (=100)	B2
156 % of control He Ab (=100)	B3
95.4 % of control He Ab (=100)	B4
210 % of control He Ab (=100)	B5
109 % of control He Ab (=100)	B6
160 % of control He Ab (=100)	B7
193 % of control He Ab (=100)	B8

Target: T1, FcγRIIa H
Assay: as above

He/Con_2aH	Binder
102 % of control He Ab (=100)	B1
106 % of control He Ab (=100)	B2
112 % of control He Ab (=100)	B3
60.9 % of control He Ab (=100)	B4
34.3 % of control He Ab (=100)	B5
63.1 % of control He Ab (=100)	B6
112 % of control He Ab (=100)	B7
107 % of control He Ab (=100)	B8

Target: T3, FcγRIIb extracellular domain with …
Assay: SPR, relative to GpH7-A5/GpH7-B3/GpL16-k0

He/Con_2b [control=100]	Binder
59.4	B9
54.9	B10
6.3	B11
35.4	B12
42.6	B13
66.4	B14
60.3	B15
48.2	B16
46.8	B17
54.7	B18

Target: T4, FcγRIIIa extracellular domain with C-terminal His tag (human, UniProt P08637 17-208)
T4 construct: extracellular domain; also called 3a; FcgRIIIa
Assay: SPR, relative to GpH7-A5/GpH7-B3/GpL16-k0

T4 sequence (P08637 17-208): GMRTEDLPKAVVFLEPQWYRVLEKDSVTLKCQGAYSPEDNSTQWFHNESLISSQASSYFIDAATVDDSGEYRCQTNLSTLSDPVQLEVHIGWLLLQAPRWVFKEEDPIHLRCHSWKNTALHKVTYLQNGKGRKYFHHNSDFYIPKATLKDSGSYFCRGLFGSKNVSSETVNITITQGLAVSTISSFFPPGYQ

He/Con_3a [control=100]	Binder
79.5	B9
67.3	B10
38.1	B11
58.8	B12
70.5	B13
98	B14
79.8	B15
69.6	B16
75.8	B17
71.1	B18

Target: T4, FcγRIIIa extracellular domain with …
Assay: SPR; He/Con_3a over He/Con_2b (FcγRIIb)

He_3a/2b (IIIa/IIb) [ratio]	Binder
1.34	B9
1.23	B10
6.06	B11
1.66	B12
1.65	B13
1.48	B14
1.32	B15
1.44	B16
1.62	B17
1.3	B18
